# B1: Ht-YutF (recombinant YutF, N-terminal hexahistidine tag) (Bacillus subtilis subsp. subtilis str. 168) (protein)
# chain: KTYKGYLIDLDGTMYNGTEKIEEACEFVRTLKDRGVPYLFVTNNSSRTPKQVADKLVSFDIPATEEQVFTTSMATAQHIAQQKKDASVYVIGEEGIRQAIEENGLTFGGENADFVVVGIDRSITYEKFAVGCLAIRNGARFISTNGDIAIPTERGLLPGNGSLTSVLTVSTGVQPVFIGKPESIIMEQAMRVLGTDVSETLMVGDNYATDIMAGINAGMDTLLVHTGVTKREHMTDDMEKPTHAIDSLTEWIPYI
# Assays:
# Format in all cases: biochemical, Bacillus subtilis
# [1] = substrate: O=[N+]([O-])c1ccc(OP(=O)(O)O)cc1; experiment: purified protein; conditions: 100 mM Tris-HCl pH 8.9, 5 mM MgCl2, 25°C
# [2] = substrate: O=c1[nH]c(=O)c2ncn([C@@H]3O[C@H](COP(=O)(O)O)[C@@H](O)[C@H]3O)c2[nH]1; experiment: colorimetric inorganic phosphate release, nonlinear regression; conditions: 100 mM MES pH 6.0, 5 mM MgCl2, 37°C
# Description: (§1) colorimetric inorganic phosphate release, nonlinear regression on Ht-YutF (recombinant YutF, N-terminal hexahistidine tag)
# [3] = substrate: O=P(O)(O)OC[C@H]1O[C@H](OP(=O)(O)OP(=O)(O)O)[C@H](O)[C@@H]1O; experiment: as above; conditions: 100 mM MES pH 6.0, 5 mM MgCl2, 37°C
# Description: as §1
# [4] = substrate: Nc1nc2c(ncn2[C@@H]2O[C@H](COP(=O)(O)O)[C@@H](O)[C@H]2O)c(=O)[nH]1; experiment: as above; conditions: 100 mM MES pH 6.0, 5 mM MgCl2, 37°C
# Description: as §1
protein,measurement,setting,value
B1,Km,[1],1.64 ± 0.06 mM
same,kcat,[1],61 ± 1 s⁻¹
same,kcat/Km,[1],37000 M⁻¹ s⁻¹
same,Km,[2],1.53 ± 0.11 mM
same,kcat,[2],0.31 ± 0.01 s⁻¹
same,kcat/Km,[2],210 M⁻¹ s⁻¹
same,Km,[3],1.27 ± 0.10 mM
same,kcat,[3],0.17 ± 0.01 s⁻¹
same,kcat/Km,[3],130 M⁻¹ s⁻¹
same,Km,[4],6.65 ± 1.26 mM
same,kcat,[4],0.06 ± 0.01 s⁻¹
same,kcat/Km,[4],9 M⁻¹ s⁻¹

# — article PMC5132288, “Identification, Heterologous Expression, and Functional Characterization of Bacillus subtilis YutF, a HAD Superfamily 5'-Nucleotidase with Broad Substrate Specificity” (PLoS ONE, 2016)
